Measurements as given in the supplement of paper PMC9112550, “Optimization of the antimicrobial peptide Bac7 by deep mutational scanning” (BMC Biology, 2022).

tested on: Escherichia coli TOP10; test: shrunken log2 fold change of peptide-encoding DNA abundance (4.5 h post-induction vs induction); higher = less antimicrobial activity (less host growth inhibition); details: time post-induction: 4.5 h; library: site-saturation at positions 5, 18, 19, 20
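Note: peptides expressed intracellularly from a pBAD plasmid library in pooled LB shake-flask culture, induced with 0.3% L-arabinose, DNA abundance read by NGS, three biological replicates, DESeq2 with apeglm shrinkage.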

Sequence | shrunken log2 fold change
RRIRRRPPRLPRPRPRPVQNPRP | 0.285
RRIRTRPPRLPRPRPRPTGKPRP | -0.108
RRIRIRPPRLPRPRPRPNIHPRP | -0.936
RRIRFRPPRLPRPRPRPHIAPRP | -0.532
RRIRLRPPRLPRPRPRPCVVPRP | -0.457
RRIRIRPPRLPRPRPRPAEYPRP | 0.0308
RRIRKRPPRLPRPRPRPTMEPRP | 0.204
RRIRIRPPRLPRPRPRPAFMPRP | -0.3
RRIRQRPPRLPRPRPRPYGPPRP | -0.415
RRIRERPPRLPRPRPRPEDCPRP | -0.104
RRIRYRPPRLPRPRPRPYTPPRP | -1.28
RRIRSRPPRLPRPRPRPRMIPRP | -0.086
RRIRVRPPRLPRPRPRPPDKPRP | 0.265
RRIRPRPPRLPRPRPRPQLGPRP | 0.159
RRIRNRPPRLPRPRPRPQSVPRP | -0.0373
RRIRYRPPRLPRPRPRPEVHPRP | -0.187
RRIRYRPPRLPRPRPRPTDKPRP | -0.347
RRIRDRPPRLPRPRPRPCFDPRP | 0.581
RRIRSRPPRLPRPRPRPCDSPRP | -0.207
RRIRGRPPRLPRPRPRPFNPPRP | -0.439
RRIRLRPPRLPRPRPRPKSAPRP | 0.139
RRIRERPPRLPRPRPRPFTHPRP | -0.0134

Sequence | shrunken log2 fold change
RRIRQRPPRLPRPRPRPFREPRP | -0.0101
RRIRLRPPRLPRPRPRPNWTPRP | -0.084
RRIRCRPPRLPRPRPRPKCIPRP | -0.102
RRIRQRPPRLPRPRPRPVPGPRP | -0.141
RRIRIRPPRLPRPRPRPPSMPRP | -0.206
RRIRARPPRLPRPRPRPFDIPRP | -0.127
RRIRFRPPRLPRPRPRPCERPRP | -0.141
RRIRGRPPRLPRPRPRPWYYPRP | -0.148
RRIRCRPPRLPRPRPRPDIKPRP | -0.336
RRIRKRPPRLPRPRPRPWYWPRP | -0.151
RRIRFRPPRLPRPRPRPTGFPRP | 0.0467
RRIRCRPPRLPRPRPRPSYVPRP | -0.786
RRIRWRPPRLPRPRPRPQMSPRP | -0.149
RRIRWRPPRLPRPRPRPGHSPRP | 0.0135
RRIRQRPPRLPRPRPRPRADPRP | 0.156
RRIRRRPPRLPRPRPRPHYVPRP | -0.13
RRIRLRPPRLPRPRPRPMSMPRP | 0.125
RRIRYRPPRLPRPRPRPKKNPRP | -0.231
RRIRWRPPRLPRPRPRPIFKPRP | 0.0632
RRIRNRPPRLPRPRPRPHKMPRP | -0.634
RRIRNRPPRLPRPRPRPWVTPRP | -0.0711
RRIRVRPPRLPRPRPRPMGWPRP | 0.202

Sequence | shrunken log2 fold change
RRIRHRPPRLPRPRPRPDQQPRP | 0.0104
RRIRWRPPRLPRPRPRPIVWPRP | -0.0161
RRIRIRPPRLPRPRPRPGVTPRP | -0.0211
RRIRDRPPRLPRPRPRPEFPPRP | -0.00168
RRIRYRPPRLPRPRPRPELKPRP | -0.162
RRIRTRPPRLPRPRPRPYFGPRP | -0.589
RRIRYRPPRLPRPRPRPMHCPRP | -0.0557
RRIRVRPPRLPRPRPRPCSCPRP | 0.141
RRIRTRPPRLPRPRPRPPYVPRP | -0.212
RRIRTRPPRLPRPRPRPLDHPRP | -0.186
RRIRYRPPRLPRPRPRPPSNPRP | -0.266
RRIRIRPPRLPRPRPRPLELPRP | -0.461
RRIRMRPPRLPRPRPRPWYYPRP | -0.0257
RRIRYRPPRLPRPRPRPETDPRP | -0.021
RRIRKRPPRLPRPRPRPGVHPRP | 0.195
RRIRHRPPRLPRPRPRPSYRPRP | -0.481
RRIRIRPPRLPRPRPRPCSNPRP | -0.11
RRIRHRPPRLPRPRPRPSGYPRP | -0.0698
RRIRCRPPRLPRPRPRPNKRPRP | -0.42
RRIRCRPPRLPRPRPRPSVLPRP | 0.0648
RRIRERPPRLPRPRPRPHVVPRP | -0.162
RRIRGRPPRLPRPRPRPDKNPRP | 0.32

Sequence | shrunken log2 fold change
RRIRVRPPRLPRPRPRPVFCPRP | 0.142
RRIRWRPPRLPRPRPRPAVHPRP | 0.631
RRIRVRPPRLPRPRPRPGEPPRP | 0.043
RRIRGRPPRLPRPRPRPSQNPRP | 0.229
RRIRFRPPRLPRPRPRPPRFPRP | 0.454
RRIRCRPPRLPRPRPRPFRGPRP | -0.151
RRIRCRPPRLPRPRPRPFGMPRP | -0.033
RRIRVRPPRLPRPRPRPMHSPRP | -0.179
RRIRWRPPRLPRPRPRPLRWPRP | 1.08
RRIRSRPPRLPRPRPRPNKDPRP | -0.651
RRIRTRPPRLPRPRPRPVHIPRP | -0.149
RRIRPRPPRLPRPRPRPGLQPRP | -0.0954
RRIRPRPPRLPRPRPRPFRMPRP | -0.134
RRIRSRPPRLPRPRPRPHYKPRP | -0.891
RRIRPRPPRLPRPRPRPIKKPRP | -0.00206
RRIRSRPPRLPRPRPRPCMCPRP | -0.0077
RRIRHRPPRLPRPRPRPAVTPRP | -0.1
RRIRNRPPRLPRPRPRPDPEPRP | 0.211
RRIRKRPPRLPRPRPRPCHSPRP | -0.0177
RRIRCRPPRLPRPRPRPEGGPRP | 0.477
RRIRSRPPRLPRPRPRPLKCPRP | -0.0843
RRIRARPPRLPRPRPRPPTRPRP | 1.29

Sequence | shrunken log2 fold change
RRIRHRPPRLPRPRPRPIGWPRP | 0.0927
RRIRNRPPRLPRPRPRPTKFPRP | -0.607
RRIRRRPPRLPRPRPRPWSMPRP | -0.121
RRIRGRPPRLPRPRPRPYNMPRP | -0.531
RRIRYRPPRLPRPRPRPFCCPRP | -0.509
RRIRNRPPRLPRPRPRPSDHPRP | -0.381
RRIRKRPPRLPRPRPRPHEVPRP | -0.00968
RRIRLRPPRLPRPRPRPHRIPRP | -0.0339
RRIRARPPRLPRPRPRPHMYPRP | -0.149
RRIRIRPPRLPRPRPRPAWVPRP | 0.0748
RRIRYRPPRLPRPRPRPAPEPRP | 0.134
RRIRNRPPRLPRPRPRPNIRPRP | -0.103
RRIRQRPPRLPRPRPRPPGAPRP | 0.757
RRIRRRPPRLPRPRPRPNCKPRP | 0.155
RRIRMRPPRLPRPRPRPCNSPRP | -0.138
RRIRVRPPRLPRPRPRPQVWPRP | 0.345
RRIRPRPPRLPRPRPRPISSPRP | -0.0101
RRIRYRPPRLPRPRPRPFWVPRP | -0.0684
RRIRCRPPRLPRPRPRPFPSPRP | 0.118
RRIRPRPPRLPRPRPRPMYNPRP | -0.639
RRIRRRPPRLPRPRPRPFPVPRP | 0.271
